According to patent publication US12661385B2, “Modulation of mTORCI activity and autophagy via CIB2-RHEB interaction” (University of Maryland, Baltimore, priority 2018, dated 2026):

What was measured:
Type in all cases: binding
[1] = tested on: Rheb; assay: Co-IP of tdTomato-CIB2 with HA-GST-Rheb and Rheb variants; details: co-IP assay
Protocol: (§1) FIG. 3. […] Note the stronger interaction between CIB2 and Rheb S20N variant as compared to Q64L variant (GDP vs GTP mimetic, respectively). c, CIB2 preferentially interacts with GDP-loaded Rheb is further confirmed by co-IP experiments of HA-GST-Rheb immobilized on […] and loaded with either GDP or GTPγS, followed by incubation with tdTomato-CIB2 lysate. d, Proposed model of CIB2 function in retinal sensory cells. […] Loss of CIB2 results in reduced autophagy and exacerbated mTORC1 signaling, thus leading to RPE pathology and secondary PR dysfunction. e, f Immunoblots from RPE/choroid lysates from dry AMD or control age-matched donors indicate reduced CIB2 expression, overactive mTORC1 and reduced autophagy, quantified in panel f. Unpaired two-tailed 1 test was used to determine statistical significance. p value of <0.05 (*), <0.01 (**), and <0.001 (***). Please note that one control sample (ψ) is outliner and is highly variant from the rest, Re-quantification, omitting the highly variant control sample, is shown in FIG. 15. g.
We tested the essentiality of nucleotide binding state of Rheb using co-IP assays. […] Next, we used the Q64L and […] Rheb variants, which mimic the GTP- and GDP-bound state, respectively. […]

[2] = molecular target: T1, GDP-bound Rheb (Homo sapiens, UniProt Q15382); assay: Co-IP with bead-immobilized HA-GST-Rheb loaded with GDP or GTPγS; details: glutathione bead-immobilized HA-GST-Rheb (WT) loaded with GDP or non-cleavable GTPγS, tdTomato-CIB2 lysate added
T1 construct: host or cells: HEK293
T1 sequence (Q15382 whole entry): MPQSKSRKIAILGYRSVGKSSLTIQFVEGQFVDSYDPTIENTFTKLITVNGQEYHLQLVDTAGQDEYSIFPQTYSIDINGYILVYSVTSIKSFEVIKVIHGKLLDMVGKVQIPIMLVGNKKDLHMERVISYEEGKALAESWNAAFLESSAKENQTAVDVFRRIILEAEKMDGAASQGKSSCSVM
Protocol: as §1
We tested the essentiality of nucleotide binding state of Rheb using co-IP assays. […] Next, we used the Q64L and S20L Rheb variants, which mimic the GTP- and GDP-bound state, respectively.
For GTPγS of GDP loading experiments, cleared lysates of HEK293 cells over-expressing HA-GST-Rheb were prepared as described in buffer lacking MgCl2. […]

[3] = molecular target: Raptor (Homo sapiens, UniProt Q8N122); assay: Co-immunoprecipitation of Raptor and CIB2; parameters: HA (N); mCherry (N); host or cells: HEK293
Raptor, sequence (Q8N122 whole entry): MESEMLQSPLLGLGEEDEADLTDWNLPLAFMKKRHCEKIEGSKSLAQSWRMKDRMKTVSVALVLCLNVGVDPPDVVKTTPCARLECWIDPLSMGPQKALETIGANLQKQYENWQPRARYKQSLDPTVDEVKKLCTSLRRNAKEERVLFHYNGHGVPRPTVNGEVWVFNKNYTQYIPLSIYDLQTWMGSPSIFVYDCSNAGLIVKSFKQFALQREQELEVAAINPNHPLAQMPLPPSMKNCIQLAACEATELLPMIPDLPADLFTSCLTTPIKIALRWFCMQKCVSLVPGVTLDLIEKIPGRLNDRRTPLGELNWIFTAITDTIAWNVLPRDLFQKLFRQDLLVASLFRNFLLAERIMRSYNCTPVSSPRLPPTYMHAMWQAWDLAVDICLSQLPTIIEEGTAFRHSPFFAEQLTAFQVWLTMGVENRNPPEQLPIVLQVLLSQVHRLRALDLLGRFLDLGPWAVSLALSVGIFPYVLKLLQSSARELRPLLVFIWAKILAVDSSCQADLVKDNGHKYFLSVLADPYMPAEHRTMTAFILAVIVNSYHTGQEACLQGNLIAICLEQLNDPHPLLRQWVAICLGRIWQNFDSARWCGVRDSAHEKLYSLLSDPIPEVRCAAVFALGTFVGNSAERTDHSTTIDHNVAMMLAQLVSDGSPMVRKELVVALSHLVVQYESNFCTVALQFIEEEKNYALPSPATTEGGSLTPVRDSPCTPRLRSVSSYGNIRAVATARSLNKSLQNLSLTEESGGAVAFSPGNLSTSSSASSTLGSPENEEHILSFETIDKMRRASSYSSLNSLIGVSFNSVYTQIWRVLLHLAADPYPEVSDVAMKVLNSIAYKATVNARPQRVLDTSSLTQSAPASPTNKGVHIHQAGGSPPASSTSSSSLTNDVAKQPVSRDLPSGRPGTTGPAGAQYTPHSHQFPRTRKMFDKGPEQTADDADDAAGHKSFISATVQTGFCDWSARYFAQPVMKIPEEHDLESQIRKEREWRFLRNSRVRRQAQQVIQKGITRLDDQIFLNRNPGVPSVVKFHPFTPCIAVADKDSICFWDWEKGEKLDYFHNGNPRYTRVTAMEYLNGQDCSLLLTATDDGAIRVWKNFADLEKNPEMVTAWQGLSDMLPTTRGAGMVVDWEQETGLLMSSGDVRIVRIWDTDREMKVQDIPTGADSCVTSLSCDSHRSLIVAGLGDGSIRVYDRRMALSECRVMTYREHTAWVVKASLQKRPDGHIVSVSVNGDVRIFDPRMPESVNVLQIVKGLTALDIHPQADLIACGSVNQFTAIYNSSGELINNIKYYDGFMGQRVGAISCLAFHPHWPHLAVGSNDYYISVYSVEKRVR
Excerpt: FIG. 14. […] Arrowheads indicate filopodia tip accumulation of hCIB2-eGFP, * indicates no accumulation of indicted constructs in the red channel. c. Representative confocal images (top panel) showing CIB2 (green) interaction with Rheb (red) and Raptor (red) using NanoTRAP assay. […] Arrowheads indicate filopodia tip accumulation of indicated constructs, * indicates no accumulation of indicted construct in the red or far-red channel. Scale bar: 10 μm. d. Quantification for nanoTRAP assay for images shown above. *** p<0.001 by one-way ANOVA. e, Co-IP experiments show interaction between Raptor and CIB2.
To reveal the molecular mechanism of CIB2-mediated mTORC1 modulation, we focused on the TSC-Rheb-mTORC1 axis. We performed an interaction screen of specific proteins including TSC1, TSC2, mTORC1-specific subunit Raptor, mTOR kinase, and Rheb. We used a recently-published quantitative interaction assay known as nanoscale pulldown 2.0 (NanoSPD), in which eGFP-nanobody tag fused to the myosin-HMM domain (nanoTRAP) preferentially migrates to the filopodia (Bird et al., Molecular Biology of the Cell 28, 463-475 (2017)). CIB2-eGFP (bait) migrated efficiently to filopodia in COS-7 cells only in the presence of the nanoTRAP. […] Many downstream and upstream targets of mTORC1 regulate its activity via binding to the mTORC1-specific subunit Raptor. […]

B1: CIB2: calcium and integrin binding protein 2, over-expressed in cells from plasmid constructs; SEQ ID NO:1 (human), SEQ ID NO:2 (mouse) (protein)
chain: MGNKQTIFTEEQLDNYQDCTFFNKKDILKLHARFYELAPNLVPMDYRKSPIVHVPMSLIIQMPELRENPFKERIVEAFSEDGEGNLTFNDFVDMFSVLCESAPRELKANYAFKIYDFNTDNFICKEDLEMTLARLTKSELEEDEVVLVCDKVIEEADLDGDGKLGFADFEDMIAKAPDFLSTFHIRI
modifications: left off: large carriers
- Binding preference among Rheb-WT, Q64L (GTP mimetic) and S20L (GDP mimetic) variants [1]: bound preferentially to the S20L variant
- Binding to GDP-bound vs GTP-bound Rheb [2]: binds more strongly to GDP-bound Rheb than to GTP-bound Rheb
- Interaction with Raptor (co-IP) [3]: confirmed the interaction
